Experimental findings from publication PMC4207522, “Interaction of Omega, Sigma, and Theta glutathione transferases with p38b mitogenactivated protein kinase from the fruit fly, Drosophila melanogaster” (Journal of Insect Science, 2014) are described below.

Test [1] addresses p38b mitogen-activated protein kinase (Drosophila melanogaster) (UniProt O61443).
The target is the same in test [2]. This is another data set of the same source.
The target is the same in test [3]. The source holds these as a separate data set.

Sequence of UniProt O61443 (O61443 whole entry): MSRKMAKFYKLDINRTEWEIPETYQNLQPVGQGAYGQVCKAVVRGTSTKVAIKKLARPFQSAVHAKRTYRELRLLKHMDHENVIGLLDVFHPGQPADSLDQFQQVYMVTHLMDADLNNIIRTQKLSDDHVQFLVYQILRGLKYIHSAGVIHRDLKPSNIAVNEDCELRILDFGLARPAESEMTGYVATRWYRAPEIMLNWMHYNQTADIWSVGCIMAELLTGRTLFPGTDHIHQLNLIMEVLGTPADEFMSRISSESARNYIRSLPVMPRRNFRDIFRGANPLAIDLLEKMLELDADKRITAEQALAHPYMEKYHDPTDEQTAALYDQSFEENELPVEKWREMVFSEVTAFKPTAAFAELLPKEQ

Regarding DmGSTO3 (enzyme), the GST thiol transferase activity toward HED after 5 min with p38b at 1:1 molar ratio, percent change (a decrease by the discussion) against no p38b in test [1] came to 14%. Besides, the p38b kinase activity toward Jun with the GST at 1:1 molar ratio (ADP Quest assay), fold against the reaction without GST in test [2] amounted to 1.6 fold.

In the case of DmGSTT2 (enzyme), in test [1], the GST conjugating activity toward CDNB after 5 min with p38b at 1:1 molar ratio, percent increase against no p38b was 14%. For the same substance, in test [2], the p38b kinase activity toward ATF2 with the GST at 1:1 molar ratio (ADP Quest assay), fold against the reaction without GST was determined as 3.1 fold and the p38b kinase activity toward Jun with the GST at 1:1 molar ratio (ADP Quest assay), fold against the reaction without GST worked out at 4.3 fold.

DmGSTT3b (enzyme): the GST conjugating activity toward CDNB after 5 min with p38b at 1:1 molar ratio, percent decrease against no p38b in test [1] was 84%. For the same substance, in test [2], the p38b kinase activity toward ATF2 with the GST at 1:1 molar ratio (ADP Quest assay), fold against the reaction without GST was determined as 3.4 fold and the p38b kinase activity toward Jun with the GST at 1:1 molar ratio (ADP Quest assay), fold against the reaction without GST was 7.4 fold. In test [3], this substance displayed a p38b kinase activity toward ATF2 with DmGSTT3b, fold against p38b with DmGSTT3a of 3.1 fold and a p38b kinase activity toward Jun with DmGSTT3b, fold against p38b with DmGSTT3a of 6.9 fold.

As for DmGSTO2a (enzyme), the GST conjugating activity toward CDNB after 5 min with p38b at 1:1 molar ratio, percent increase against no p38b in test [1] is 26%.

DmGSTO1 (enzyme): the GST conjugating activity toward CDNB after 5 min with p38b at 1:1 molar ratio, percent increase against no p38b in test [1] was 58%. The p38b kinase activity toward Jun with the GST at 1:1 molar ratio (ADP Quest assay), fold against the reaction without GST in test [2] was determined as 2 fold.
